± gives the standard deviation of the averaged measurements.
Tested on: Saccharomyces cerevisiae
Test: protein stability index of tFT-peptide fusion (C-terminal peptide) (PSI (0-1 scale)); higher = more stable (slower turnover)
Settings: temperature: 30 C
Protocol: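 MPS profiling in S. cerevisiae of the yeast C-terminome library: the last 12 aa of each annotated ORF are fused to the C-terminus of a sfGFP-mCherry timer, after a GGGS linker. Cells are FACS-sorted into 8 mCherry/sfGFP bins and deep-sequenced. PSI runs from 0 (unstable) to 1 (stable); wild type and das1Δ backgrounds, two technical replicates each.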

[1] = genetic background: das1 deletion

Sequence | protein stability index [1] | protein stability index (genetic background: wild type)
PEKWSASLKKFK [THI6 C-terminal 12 aa] | 0.731 ± 0.017 | 0.6854 ± 0.0031
PTVTRKTPDYFL [PPH22 C-terminal 12 aa] | 0.696 ± 0.0091 | 0.718 ± 0.089
AYFALREKKFLL [YIL012W C-terminal 12 aa] | 0.694 ± 0.019 | 0.641 ± 0.018
PAAKKVVELTQN [LSC2 C-terminal 12 aa] | 0.685 ± 0.012 | 0.58 ± 0.019
NNDILQNKKLHQ [KIP1 C-terminal 12 aa] | 0.686 ± 0.034 | 0.712 ± 0.053
MILKVSLECAVS [YDL009C C-terminal 12 aa] | 0.468 ± 0.0021 | 0.481 ± 0.016
KKHRVGMPKEDK [DIC1 C-terminal 12 aa] | 0.67 ± 0.013 | 0.69 ± 0.031
ISDNVPKEAIIM [PSA1 C-terminal 12 aa] | 0.686 ± 0.023 | 0.631 ± 0.034
KNKTKQNQAQSW [LTO1 C-terminal 12 aa] | 0.704 ± 0.012 | 0.679 ± 0.017
RLLGPCFKTGGI [YLR154W-B C-terminal 12 aa] | 0.696 ± 0.0085 | 0.675 ± 0.043
FDSEHFYSPVQT [PRP3 C-terminal 12 aa] | 0.7065 ± 0.0023 | 0.71 ± 0.024
FWEKRWKDGWDE [ERV1 C-terminal 12 aa] | 0.756 ± 0.053 | 0.681 ± 0.031
VILMVDFTLVGP [YDR262W C-terminal 12 aa] | 0.429 ± 0.023 | 0.426 ± 0.0078
DEADSSMTEASV [SNF2 C-terminal 12 aa] | 0.704 ± 0.033 | 0.634 ± 0.015
GHNWLIFTRRRL [CBT1 C-terminal 12 aa] | 0.718 ± 0.012 | 0.707 ± 0.0083
TTRYAKEMNIIS [HIR2 C-terminal 12 aa] | 0.694 ± 0.031 | 0.705 ± 0.054
IGAPASGLRIRV [COP1 C-terminal 12 aa] | 0.693 ± 0.0074 | 0.69199 ± 5.7e-06
KTSPTCHNMFDV [SDD4 C-terminal 12 aa] | 0.7283 ± 0.0018 | 0.6781 ± 0.00075
IVPSQGKKVKFD [NOP13 C-terminal 12 aa] | 0.679 ± 0.0068 | 0.676 ± 0.011
EDRQAFFDSLKE [YGK1 C-terminal 12 aa] | 0.724 ± 0.036 | 0.651 ± 0.025
NTFRKIKGDKKN [MDJ1 C-terminal 12 aa] | 0.687 ± 0.068 | 0.758 ± 0.0081

Sequence | protein stability index [1] | protein stability index (genetic background: wild type)
TGQVGVPTISQV [NCE102 C-terminal 12 aa] | 0.687 ± 0.021 | 0.6819 ± 0.0068
YVIVFFVYDSLL [YOL046C C-terminal 12 aa] | 0.238 ± 0.0075 | 0.283 ± 0.015
GETSSSSAVAEV [AQY1 C-terminal 12 aa] | 0.6874 ± 0.0045 | 0.659 ± 0.03
IQESRFNFYLIT [RKM5 C-terminal 12 aa] | 0.683 ± 0.023 | 0.6241 ± 0.0035
AQPSQSEKEKTK [LNP1 C-terminal 12 aa] | 0.679 ± 0.015 | 0.678 ± 0.04
GIYSAVIDQTGF [RRP9 C-terminal 12 aa] | 0.705 ± 0.011 | 0.6868 ± 0.003
ELLRLHNCHLPV [RMA1 C-terminal 12 aa] | 0.713 ± 0.018 | 0.7 ± 0.0081
YKELKDFIFAEK [GUK1 C-terminal 12 aa] | 0.692 ± 0.0077 | 0.727 ± 0.035
SFSYLWRNFGFI [PDR18 C-terminal 12 aa] | 0.7475 ± 0.0067 | 0.716 ± 0.027
LVGGGIKKSGKK [TMA7 C-terminal 12 aa] | 0.67 ± 0.016 | 0.736 ± 0.011
LYGPSKTRKFFD [VMA4 C-terminal 12 aa] | 0.724 ± 0.027 | 0.692 ± 0.011
EAQSARNEKPLK [COS8 C-terminal 12 aa] | 0.685 ± 0.021 | 0.691 ± 0.029
SNNPKLHHAKEA [MEP3 C-terminal 12 aa] | 0.696 ± 0.041 | 0.375 ± 0.013
QKNKKRKFSDTS [RNT1 C-terminal 12 aa] | 0.696 ± 0.019 | 0.701 ± 0.018
KRAELASKYIYS [COG8 C-terminal 12 aa] | 0.713 ± 0.022 | 0.692 ± 0.015
QRASSRPKERRK [MSB4 C-terminal 12 aa] | 0.711 ± 0.019 | 0.713 ± 0.016
TEEMKDAEEMKQ [RIX7 C-terminal 12 aa] | 0.685 ± 0.014 | 0.661 ± 0.017
STFSIVSSISLW [YPL044C C-terminal 12 aa] | 0.6894 ± 0.0026 | 0.665 ± 0.057
EQIELKNFFVDV [YCR016W C-terminal 12 aa] | 0.6881 ± 0.0062 | 0.6997 ± 0.0015
GKLPSSLLSYFV [ZUO1 C-terminal 12 aa] | 0.7219 ± 0.0065 | 0.673 ± 0.032
TKVIQVQKKCIQ [IRC14 C-terminal 12 aa] | 0.688 ± 0.026 | 0.672 ± 0.032

Sequence | protein stability index [1] | protein stability index (genetic background: wild type)
HVCVDVDVIVST [TRM12 C-terminal 12 aa] | 0.6505 ± 0.0056 | 0.6574 ± 0.001
KCQTKHTFTGLI [YGR269W C-terminal 12 aa] | 0.695 ± 0.0072 | 0.723 ± 0.021
VACDSDSSSTIE [YEN1 C-terminal 12 aa] | 0.679 ± 0.016 | 0.699 ± 0.014
RKSKKDTDSDSD [BMT5 C-terminal 12 aa] | 0.7 ± 0.023 | 0.695 ± 0.055
SSGADNSASSNQ [PAM16 C-terminal 12 aa] | 0.684 ± 0.014 | 0.667 ± 0.029
GNSVNPYNGRIN [SGF73 C-terminal 12 aa] | 0.718 ± 0.019 | 0.735 ± 0.0081
EFEKAQEINKKA [YRB1 C-terminal 12 aa] | 0.712 ± 0.017 | 0.694 ± 0.02
QSLKISKKRRRK [ZIP1 C-terminal 12 aa] | 0.734 ± 0.033 | 0.748 ± 0.086
IAFPQRKYAIKA [RPL35A C-terminal 12 aa] | 0.299 ± 0.024 | 0.33 ± 0.01
KLESSKNTSHEK [NFU1 C-terminal 12 aa] | 0.725 ± 0.0084 | 0.705 ± 0.0085
ILEAWEKVDDSL [SNX4 C-terminal 12 aa] | 0.734 ± 0.013 | 0.734 ± 0.016
GLSPIRYFIPQH [YNL114C C-terminal 12 aa] | 0.659 ± 0.017 | 0.6812 ± 0.0052
SFRLTKRQTDND [POS5 C-terminal 12 aa] | 0.7021 ± 0.0053 | 0.709 ± 0.033
IIRPLVLKNFII [YDR371C-A C-terminal 12 aa] | 0.5029 ± 0.0013 | 0.116 ± 0.0054
FIYKRNKKFILN [YPQ1 C-terminal 12 aa] | 0.725 ± 0.014 | 0.21 ± 0.019
SDEFVDASEYKD [UTP9 C-terminal 12 aa] | 0.7 ± 0.044 | 0.6722 ± 0.0063
SKQEKPLSRPKD [GPI15 C-terminal 12 aa] | 0.718 ± 0.013 | 0.684 ± 0.022
SLRIEAIKKGFV [SPS1 C-terminal 12 aa] | 0.727 ± 0.048 | 0.675 ± 0.029
NMVNFESEKVNR [YVH1 C-terminal 12 aa] | 0.706 ± 0.02 | 0.662 ± 0.012
IEVGADSYAEEF [TUB3 C-terminal 12 aa] | 0.689 ± 0.018 | 0.671 ± 0.014
GPCVDALLSLSE [VPS9 C-terminal 12 aa] | 0.74 ± 0.0083 | 0.716 ± 0.048

Sequence | protein stability index [1] | protein stability index (genetic background: wild type)
YNKLKGAGHKKE [PAI3 C-terminal 12 aa] | 0.6777 ± 0.0045 | 0.645 ± 0.0076
LKKEKLQALPTP [PDP3 C-terminal 12 aa] | 0.691 ± 0.00082 | 0.675 ± 0.011
LMLGVAYYLLNE [CYB5 C-terminal 12 aa] | 0.624 ± 0.044 | 0.649 ± 0.048
HSVWSQSTINND [YML034C-A C-terminal 12 aa] | 0.725 ± 0.015 | 0.702 ± 0.066
LMVENFRKEYII [PTI1 C-terminal 12 aa] | 0.7001 ± 0.002 | 0.547 ± 0.031
AKTKFCCCIPFK [YOR376W-A C-terminal 12 aa] | 0.7168 ± 0.0059 | 0.721 ± 0.078
LSEASKLASKPL [COX15 C-terminal 12 aa] | 0.701 ± 0.0094 | 0.704 ± 0.039
LKFEPTQEIVES [ITR2 C-terminal 12 aa] | 0.7054 ± 0.002 | 0.677 ± 0.032
DDFDMMEATQLS [MUD2 C-terminal 12 aa] | 0.70816 ± 0.00051 | 0.696 ± 0.0094
GLSIDTRSAYFV [YPL251W C-terminal 12 aa] | 0.725 ± 0.019 | 0.68 ± 0.026
EIRKIMMEEQPR [CHM7 C-terminal 12 aa] | 0.6863 ± 0.0051 | 0.66 ± 0.0089
SKYNCNIPACCV [YLR122C C-terminal 12 aa] | 0.654 ± 0.017 | 0.6636 ± 0.0051
NLDGQIHYLQRL [GAL7 C-terminal 12 aa] | 0.706 ± 0.012 | 0.761 ± 0.091
MGSSRRTSLDFF [YBR071W C-terminal 12 aa] | 0.7242 ± 0.0015 | 0.693 ± 0.025
GVAKSMGIKVVP [MRPL19 C-terminal 12 aa] | 0.652 ± 0.0064 | 0.686 ± 0.044
SKGSPINTQYVF [AGA2 C-terminal 12 aa] | 0.731 ± 0.02 | 0.732 ± 0.056
TQSPADFSSQNH [NHX1 C-terminal 12 aa] | 0.74 ± 0.021 | 0.701 ± 0.021
VQSTDIAAMQKL [EFB1 C-terminal 12 aa] | 0.721 ± 0.014 | 0.683 ± 0.035
TRGEATLRANYQ [YOR008W-B C-terminal 12 aa] | 0.6862 ± 0.003 | 0.73 ± 0.055

— the supplement of paper PMC10724198
